Results on three molecules are retold here after patent US20250264471A1 (INDI MOLECULAR, published 2025).

Numbered stars: 1 amine (or outer) side, 2 acyl side, 3 side chain; on linkers, the order of the positions; unused ones are H or OH. Bridge positions count the residues as written; N and C are the ends. Square brackets hold non-standard residues; d marks the D form. Primed or numbered codes have the meaning given here. Ends that are not written are not given here. I, II: the chains in the order shown. * marks the point of attachment. Az8″ = 2-amino-10-azidodecanoic acid (azido amino acid), [N-]=[N+]=NCCCCCCCC[C@H](N[*:1])C(=O)[*:2]; Butanoyl(4-ethynyl) = C#CCCCC(=O)*; Biotin′ = not defined here; Pra = C#CC[C@H](N)C(=O)O; C8N3 = not defined here; 5HA = not defined here; Az8 = not defined here

Test [1] concerns the target T1, Akt1-S473E (H. sapiens, UniProt P31749 118-480 (human entry)).
T1 construct: Partially active Akt1 kinase domain expressed in Hi5 insect cells from pVLAKT.2; also called Akt-S473E; AktS473E
T1 chain: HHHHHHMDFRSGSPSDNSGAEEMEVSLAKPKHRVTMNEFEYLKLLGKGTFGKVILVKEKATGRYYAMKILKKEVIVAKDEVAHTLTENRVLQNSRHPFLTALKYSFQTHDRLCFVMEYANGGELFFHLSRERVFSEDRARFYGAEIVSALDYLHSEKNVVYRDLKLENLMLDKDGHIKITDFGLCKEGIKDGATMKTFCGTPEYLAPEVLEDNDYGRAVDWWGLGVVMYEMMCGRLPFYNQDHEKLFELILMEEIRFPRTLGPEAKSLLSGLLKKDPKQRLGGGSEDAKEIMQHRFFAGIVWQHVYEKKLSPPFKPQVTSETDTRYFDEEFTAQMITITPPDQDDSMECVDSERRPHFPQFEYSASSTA
The test can be described thus: ELISA.

A further test addresses T2, Akt1-S473E-T308P (H. sapiens, UniProt P31749 118-480 (human entry), phosphorylated at residue T308 (phosphothreonine)).
T2 construct: Fully active kinase; T308P means phospho-T308, not a proline substitution; Same construct as Akt1-S473E; also called Akt-S473E-T308P; Akt-S473E/T308P
T2 chain: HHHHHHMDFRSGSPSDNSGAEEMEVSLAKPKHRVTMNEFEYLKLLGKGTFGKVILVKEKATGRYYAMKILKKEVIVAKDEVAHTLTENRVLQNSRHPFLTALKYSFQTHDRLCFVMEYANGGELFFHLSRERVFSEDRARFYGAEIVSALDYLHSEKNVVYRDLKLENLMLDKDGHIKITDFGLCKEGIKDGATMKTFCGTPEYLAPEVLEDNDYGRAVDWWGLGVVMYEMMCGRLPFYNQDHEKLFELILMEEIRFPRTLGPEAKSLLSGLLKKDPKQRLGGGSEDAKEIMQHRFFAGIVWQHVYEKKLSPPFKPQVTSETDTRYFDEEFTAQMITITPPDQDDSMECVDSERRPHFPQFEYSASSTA
Put plainly: kinase kinetics, Dixon plot of 1/v vs. [Triligand] with varying [ATP]; noncompetitive. As for the experimental part: To determine the inhibition mode of the triligand with respect to the ATP, kinase reactions were set up with increasing concentrations of ATP. The reactions were set up in a similar manner to that described above. The concentration of Biotin-Crosstide was held constant at 25 μM and the concentration of enzyme was held at […]. The concentration of ATP ranged from 125 μM to 4 μM (125 μM, 63 μM, 32 μM, 16 μM, 8 μM, 4 μM) while the concentration of triligand varied from 0 to 10 μM (0, 1 μM, 5 μM, 10 μM). [γ-³²P]-ATP (7000 Ci/mmol, 10 μCi/μL) was added to the cold ATP stock to maintain an [ATP]ₜₒₜₐₗ/[γ-³²P]-ATP ratio of 1667. The reactions were incubated, quenched, and analyzed as described above.
KM and Vₘₐₓ values for Akt1-S473ET308P were obtained by nonlinear regression from the results of the inhibition experiments (GraphPad). The literature values for the Michaelis constants for ATP and substrate peptide were taken from Klein 2005. The triligand Kᵢ (noncompetitive inhibition) was obtained from the negative X-intercept of the Dixon plot of 1/v vs. [Triligand] with varying [ATP]. The Kᵢ is the mean value of the observed X-intercepts and the error range is the standard deviation. The triligand K_{i′}, (uncompetitive inhibition) was obtained from the intercept of the Dixon plot of 1/v vs. [Triligand] with varying [Peptide]. […]

The target of test [2] is T1, Akt1-S473E. Put plainly: SPR (Biacore T100): biotinylated triligand on streptavidin chip, Akt1-S473E 9000 nM to 1 nM as analyte, 10 °C, from kinetic constants. The procedure: For this experiment, the biotinylated triligand was immobilized on a streptavidin-derivatized biacore chip and probed with Akt-S473E at concentrations ranging from 9 μM to 1 nM.
Triligand binding affinity was further analyzed by SPR using a Biacore T100. A Streptavidin Chip (Series S, G.E. Healthcare) was conditioned as recommended by the manufacturer. Biotinylated ligand was diluted into HBSP+ Buffer (G.E. Healthcare) to a final concentration of 100 nM and 137 RU was immobilized on the chip. Akt1-S473E was prepared as described previously and subjected to buffer exchange into HBSP+using Zeba Desalting Columns (Pierce). Serial dilutions of the enzyme were made in HBSP+ buffer (9000 nM to 1 nM) and flowed over the chip at 50 μL/minute. Binding and dissociation were carried out at 10° C. with a contact time of 360 seconds, a dissociation time of 400 seconds, and a stabilization time of 200 seconds. The response was corrected using an unmodified reference flow cell. Kinetic constants were obtained from the sensograms and used to calculate the dissociation constant.
A general note: SPR reads the build-up and loss of mass on a sensor chip optically.

Test [3] has as its target T1, Akt1-S473E. Put plainly: ELISA: Akt-S473E on Ni-NTA plate, biotinylated peptide titrated, SA-HRP. The procedure:
3 μg of Akt-S473E was added to each well in a HisSorb Ni-NTA plate (Qiagen) in 50 μL of ELISA blocking buffer (25 mM Tris-CI (pH=7.5), 150 mM NaCl, 10 mM MgCl₂, 0.1% (v/v) Tween-20, and 4 mg/mL BSA). 50 μL of imidazole blocking buffer (25 mM Tris-CI (pH=7.5), 150 mM NaCl, 10 mM MgCl₂, 0.1% (v/v) Tween-20, 100 mM imidazole, and 4 mg/mL BSA) was added to the control wells. After 18 hours at 4° C., the wells were washed with ELISA blocking buffer and 50 μL of each ligand dilution was added in ELISA blocking buffer. The ligands were bound at 4° C. for 120 minutes followed by three washed in ELISA blocking buffer. 50 μL of horseradish peroxidase-conjugated streptavidin (SA-HRP, Thermo) was added (1:5000 dilution in ELISA blocking buffer) and incubated for 70 minutes at 4° C. The wells were washed three times in TBST (Tris-buffered saline+0.2% Tween-20) and once in TBS (Tris-buffered saline). 50 μL of peroxidase substrate (KPL) was added to generate the final signal which was quenched in 1 M H₂SO₄ and quantitated on a 96-well plate reader at λ=450 nm. The Net A450 was calculated by subtracting the A450 of each blank well (No Akt-S473E) from the experimental well. The data were fit by non-linear regression in GraphPad Prism.
For orientation: ELISA stands for enzyme-linked immunosorbent assay.

B1: biotinylated anchor ligand Az8-VFYRLGY-Biotin (peptide)
peptide: [Az8″]VFYRLGY-biotin
notes: also called anchor peptide; biotinylated anchor peptide
For the molecule B1, the dissociation constant (Kd) (in general, the concentration at which binding is half-saturated) with Akt1-S473E [1] was 25 µM.

B2: Akt triligand (biotinylated) (designed binder)
peptide 1: {5HA-C8N3}-VFYRLGY-{Biotin′}
peptide 2: Ac-[Pra]FWFLRG-NH2
peptide 3: {Ac-C8N3}-RHERI-NH2
modifications: triazole II:N-II:1; reading uncertain; also: triazole to a chain's N-terminus
notes: Assembled from 5HA-Biligand-Bio and Ac-C8N3-RHERI-CONH2; also called branched triligand
For B2, the Ki (commonly a dissociation constant, usually derived from enzyme kinetics or from competition with a known ligand) in the test with Akt1-S473E-T308P is 4 µM. The molecule also had a Kd with Akt1-S473E [2] of 0.2 µM.

B3: 5HA-Biligand-Bio (Akt biligand) (designed binder)
peptide 1: {Butanoyl(4-ethynyl)-Az8}-VFYRLGY-biotin
peptide 2: Ac-[Pra]FWFLRG-NH2
modifications: triazole II:N-II:1; reading uncertain; also: mixture of diastereomers
notes: Branched peptide, mixture of diastereomers; also called biotinylated biligand
For B3, the “fold improvement in affinity relative to the anchor peptide” value with Akt1-S473E [3] is greater than 100 fold.
